± gives the standard deviation of the averaged measurements.
Test system: ATP
Assay: switch fluorescence ratio, 500 uM ATP over buffer (Cy3 cluster intensity, sum of 5 cycles each) (fold (ratio)); higher = stronger signal-on switching upon ATP binding; sequences stand for … in TCGTCGGCAGCGTCAGATGTGTATAAGAGACAGTTTTTTTTTTTTTTTTTTTTTTTTT…TC
Conditions: aptamer strand: ATP DNA aptamer (quencher-CACCTGGGGGAGTATTGCGGAGGAAGG + anchor), 100 nM annealed; ATP concentration: 500 uM
How it was run: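 Exposure to 500 uM ATP lasted 15 min at 22 °C before imaging, and a selection-buffer image was taken beforehand, for Cy3-labelled switching-strand clusters on a modified Illumina MiSeq flow-cell annealed to 100 nM quencher-labelled ATP aptamer. Five buffer/ATP cycles were run with NaOH stripping and re-annealing between them. The fluorescence ratio per cluster is summed target-cycle over summed buffer-cycle Cy3 intensity, averaged per switch-domain sequence. Clusters outside 100-1000 RFU were excluded.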

Sequence	switch fluorescence ratio
TCGGGGCTGG	1.02 ± 0.029
TCGGGGGCCT	0.959 ± 0.022
TCGGGGGGAC	1.03 ± 0.036
TCGGGGGGCG	0.977 ± 0.034
TCGGGGGGCT	1.06 ± 0.048
TCGGGGGGGT	1.06 ± 0.19
TCGGGGGGTG	1.01 ± 0.041
TCGGGGTATC	1.03 ± 0.0046
TCGGGGTATG	0.982 ± 0.014
TCGGGGTGTT	1.001 ± 0.0096
TCGGGTAAAG	0.9947 ± 0.0053
TCGGGTATGT	0.977 ± 0.029
TCGGGTCTAC	1.01 ± 0.018
TCGGGTGGTT	1 ± 0.016
TCGGTAATAT	1.08 ± 0.16
TCGGTAGGTG	1.028 ± 0.0052
TCGGTCAGTT	0.971 ± 0.012
TCGGTCCCAG	1.03 ± 0.014
TCGGTGGCGT	1.02 ± 0.048
TCGGTGGGGA	0.992 ± 0.087
TCGGTGGGGG	1.01 ± 0.051
TCGGTGGGTA	0.983 ± 0.013
TCGGTGTTTC	0.962 ± 0.017
TCGGTTAAGT	1.02 ± 0.031
TCGGTTGAAC	1.01 ± 0.031

Sequence	switch fluorescence ratio
TCGGTTGAGG	0.983 ± 0.025
TCGGTTGCTA	1.05 ± 0.023
TCGGTTGTG	0.9644 ± 0.0092
TCGGTTTAGC	1.02 ± 0.035
TCGGTTTTAC	1.033 ± 0.0061
TCGTAAATTT	0.973 ± 0.055
TCGTACTGTG	1.02 ± 0.1
TCGTAGAGGA	0.995 ± 0.032
TCGTAGAGGG	1.008 ± 0.0013
TCGTAGCAGG	1.12 ± 0.14
TCGTATGGGT	1 ± 0.045
TCGTCGCAGG	1.1 ± 0.058
TCGTCGTGTG	1 ± 0.028
TCGTCGTTTG	0.991 ± 0.01
TCGTCTTTTG	0.997 ± 0.015
TCGTGAGCGG	0.996 ± 0.034
TCGTGATTTT	1 ± 0.035
TCGTGCACGA	1.018 ± 0.0062
TCGTGCTTTG	1.0145 ± 0.00045
TCGTGGGGAG	0.982 ± 0.015
TCGTGGGGTA	0.9761 ± 0.007
TCGTGGTGGG	0.994 ± 0.012
TCGTGTCGG	0.98 ± 0.021
TCGTGTGGGT	1.01 ± 0.023
TCGTGTGGTT	0.978 ± 0.035

Sequence	switch fluorescence ratio
TCGTGTTTGT	1.02 ± 0.011
TCGTTAATGA	1.02 ± 0.02
TCGTTATTCG	0.979 ± 0.021
TCGTTATTGG	0.9844 ± 0.0023
TCGTTCATGG	0.979 ± 0.039
TCGTTCGGCT	1.01 ± 0.044
TCGTTCGGGG	1.041 ± 0.0049
TCGTTCGTCG	1.04 ± 0.06
TCGTTCTGGG	0.996 ± 0.023
TCGTTGAGCA	0.994 ± 0.018
TCGTTGCAGG	1.05 ± 0.092
TCGTTGCTAG	0.982 ± 0.059
TCGTTGGCTT	1 ± 0.011
TCGTTTATCA	0.9771 ± 0.0073
TCGTTTCGGG	0.985 ± 0.017
TCGTTTGTAT	0.972 ± 0.005
TCGTTTTATT	0.9925 ± 0.0076
TCGTTTTCCC	1.08 ± 0.14
TCGTTTTGAC	1.02 ± 0.023
TCGTTTTGAG	0.971 ± 0.039
TCGTTTTGCA	0.991 ± 0.013
TCGTTTTGGG	0.9988 ± 0.0056
TCTAAAGATT	1.011 ± 0.0027
TCTAACATGC	1.15 ± 0.12
TCTAACTTAG	1.043 ± 0.0025

Sequence	switch fluorescence ratio
TCTAAGACGT	0.957 ± 0.018
TCTAAGAGTC	0.975 ± 0.039
TCTAAGCTGG	0.988 ± 0.014
TCTAAGGCCC	0.986 ± 0.011
TCTAATTAGT	0.993 ± 0.013
TCTAATTGTT	0.9991 ± 0.0053
TCTACAGTCG	1.02 ± 0.023
TCTACGGCGT	0.9991 ± 0.0059
TCTACGGTGC	1.5 ± 0.24
TCTACTGGGT	0.993 ± 0.033
TCTAGAAGCG	1.0039 ± 0.00082
TCTAGCACGG	1.06 ± 0.023
TCTAGGAGGG	0.998 ± 0.016
TCTAGGCCTC	1.019 ± 0.0038
TCTAGGTAGA	0.993 ± 0.026
TCTAGTAAAT	1.01 ± 0.015
TCTATCAGTG	1.02 ± 0.018
TCTATCTTTA	0.996 ± 0.019
TCTATGACAA	1.01 ± 0.039
TCTATGAGGC	0.988 ± 0.024
TCTATGGGGT	1 ± 0.019
TCTATTAAGG	1 ± 0.013
TCTATTACGC	1 ± 0.047
TCTATTCCCT	1.02 ± 0.027
TCTCACTGCC	1.08 ± 0.028

Sequence	switch fluorescence ratio
TCTCAGAGTA	1 ± 0.012
TCTCAGGGGT	1.07 ± 0.094
TCTCATAGGT	1.04 ± 0.038
TCTCATTCAG	1.06 ± 0.14
TCTCGGAAAA	0.996 ± 0.021
TCTCGTCAGC	1.087 ± 0.0041
TCTCGTGGGA	1.01 ± 0.03
TCTCGTTTT	0.979 ± 0.025
TCTCTGTCGA	1.4 ± 0.11
TCTCTTAAGT	0.989 ± 0.012
TCTCTTTTTA	1.02 ± 0.023
TCTGAAGATT	0.999 ± 0.016
TCTGAAGGTG	1.28 ± 0.22
TCTGATTTGT	1.01 ± 0.013
TCTGCCATTT	1.44 ± 0.63
TCTGCCTTTT	1.05 ± 0.074
TCTGGAGCCG	1.04 ± 0.022
TCTGGAGGGG	1.022 ± 0.0073
TCTGGCGCCG	1.03 ± 0.017
TCTGGGAGAA	0.992 ± 0.042
TCTGGGGAAT	1 ± 0.035
TCTGGGGGAG	0.977 ± 0.029
TCTGGGGTTA	1 ± 0.018
TCTGGGTGCC	1.02 ± 0.055
TCTGGTACAG	0.969 ± 0.02

Sequence	switch fluorescence ratio
TCTGGTCCGG	0.997 ± 0.015
TCTGGTGTGG	0.994 ± 0.053
TCTGGTTGAG	1.02 ± 0.019
TCTGTAAATT	0.991 ± 0.03
TCTGTAGGTT	1.03 ± 0.024
TCTGTATTCG	1.005 ± 0.0033
TCTGTATTTG	0.981 ± 0.028
TCTGTGTAGC	1 ± 0.027
TCTGTTAATT	1.01 ± 0.014
TCTTACAATT	0.971 ± 0.036
TCTTAGATGA	0.9765 ± 0.003
TCTTATATTT	0.9977 ± 0.0021
TCTTATGGAA	1.04 ± 0.047
TCTTATTTGG	1.01 ± 0.05
TCTTCTAA	0.9972 ± 0.0047
TCTTGAACGT	0.978 ± 0.018
TCTTGATTAT	0.9795 ± 0.0085
TCTTGGAGCT	1.01 ± 0.019
TCTTGGCGCC	0.97579 ± 0.00051
TCTTGGGGG	1.05 ± 0.012
TCTTGGGGGA	0.996 ± 0.031
TCTTGGTCGT	0.9677 ± 0.0051
TCTTGTAATC	1.07 ± 0.055
TCTTGTATTC	0.9938 ± 0.0094
TCTTTACCGA	1.02 ± 0.036

Sequence	switch fluorescence ratio
TCTTTACGGT	1.04 ± 0.045
TCTTTACTAC	1.08 ± 0.081
TCTTTATAAA	1.02 ± 0.038
TCTTTCCTTC	1.04 ± 0.12
TCTTTCTTTT	1.03 ± 0.027
TCTTTGCAGC	1.025 ± 0.0041
TCTTTGCCGT	0.982 ± 0.021
TCTTTGGTTT	1.17 ± 0.25
TCTTTTAGGC	1 ± 0.036
TCTTTTCGTT	1 ± 0.011
TCTTTTGGAT	0.994 ± 0.019
TCTTTTTCCT	1.045 ± 0.0054
TCTTTTTCTT	1.01 ± 0.033
TCTTTTTGCA	1.03 ± 0.014
TCTTTTTGGC	1.01 ± 0.034
TGAAAAAAAG	0.973 ± 0.04
TGAAAAACAC	1.12 ± 0.17
TGAAAATACC	1.011 ± 0.01
TGAAAATGCG	1.01 ± 0.057
TGAAAATTAG	0.9688 ± 0.0049
TGAAAATTCA	1.05 ± 0.077
TGAAAATTCC	1.12 ± 0.073
TGAAACAGGT	1.001 ± 0.0032
TGAAACGGAA	1.15 ± 0.079
TGAAAGTGCT	0.973 ± 0.02

Sequence	switch fluorescence ratio
TGAAATAGGG	1.0312 ± 0.00097
TGAAATATCA	1.0208 ± 0.00019
TGAAATCCGA	1 ± 0.027
TGAAATTTAA	1 ± 0.0065
TGAAATTTAG	1.01 ± 0.047
TGAAATTTG	1.01 ± 0.03
TGAACAAGAT	1.01 ± 0.022
TGAACAGGGG	0.9869 ± 0.0078
TGAACGAGGG	1.01 ± 0.022
TGAACGGATC	1.03 ± 0.008
TGAACGTCCA	1.09 ± 0.015
TGAACGTTTT	1.04 ± 0.029
TGAACTAGTA	0.9828 ± 0.0046
TGAAGATGGG	1 ± 0.019
TGAAGATTTA	1.03 ± 0.017
TGAAGCAGGG	1.13 ± 0.018
TGAAGCATTT	1.17 ± 0.14
TGAAGGAGTG	0.955 ± 0.038
TGAAGGATTT	1.01 ± 0.034
TGAAGGGGCC	2.74 ± 2.5
TGAAGGGGGA	0.995 ± 0.041
TGAAGTGAAT	1.01 ± 0.011
TGAAGTTGG	1.01 ± 0.019
TGAATAATCT	1.055 ± 0.004
TGAATAGGGC	0.9882 ± 0.0097
